One test addresses SYK pY323 (human) (UniProt P43405). Kind of test: IHC pathology score, share of the 15 human DLBCL biopsies scored positive.
Test [1] deals with endogenous pSYK (activated SYK, pSYK Y525/526) in stimulated human lymphoma/leukemia cells, xenografts and biopsies (human) (UniProt P43405). Briefly: IHC, PHTX95L xenograft, SYK inhibitor-treated mice, Aperio positive pixel count.
The target is the same in test [2]. Briefly: IHC, PHTX 95L xenograft untreated, Aperio positive pixel count.
Test [3] shares this target. Briefly: IHC pathology score, share of the 15 human DLBCL biopsies scored positive.
For another test, the target named is Total SYK (human) (UniProt P43405). Described as above.

Substance Epitomics 2173 anti-SYK pY323 antibody came in with a % Positive with SYK pY323 (human) of 40%. Consider “Epitomics 2175-1 anti-pSYK Y525/526 antibody”, for which the Percent Positive Pixel per total Pixel turned out to be 0.56% in test [1] and 8.21% in test [2]. In addition, in test [3], the % Positive is 40%. In the test with Total SYK (human), “Epitomics 1688-1 anti-hSYK (total SYK) antibody” returned a % Positive of 100%.

The values are drawn from patent US20170037151A1.
